Laboratory results from patent publication US20110275057A1.

What was measured:
[1] = target: Protein Kinase A catalytic subunit (bos taurus) (UniProt P00517); assay: cell-based or functional assay
[2] = target: Protein Kinase A catalytic subunit (bos taurus) (UniProt P00517); assay: holoenzyme formation with CS; method and reference not described

Protein Kinase A regulatory subunit (RIα isomer), double Cys mutant (Ser 145→Cys; Gly 235→Cys), no DNA coupled (from UniProt Q9DBC7 1-381)
inhibitory effects (on kinase activity) relative to the wild type RS [1]: > 80%
kinase activity, fold increase on addition of cAMP to the holoenzyme built with the Cys mutant without DNA (FIG. 17b) [1]: 3 fold

RIα-DNA chimera hybridized with the complementary DNA 60 mer (ds chimera, under mechanical tension) (from UniProt Q9DBC7 1-381)
kinase activity (Luciferase assay, ATP disappearance), fold increase over the ss chimera holoenzyme, batch of FIG. 17a [1]: 2 fold
kinase activity, increase over the ss chimera holoenzyme, second synthesis batch (FIG. 17b) [1]: 50%
γDNA (increase in activity by the complementary DNA, corrected for the yield; case γDNA≧γcAMP) [1]: 2.7 fold

RIα-DNA chimera: PKA regulatory subunit (Ser 145→Cys; Gly 235→Cys) with a single stranded DNA 60 mer coupled to the two Cys residues (from UniProt Q9DBC7 1-381)
decrease in associating with the CS to form the holoenzyme [2]: 20%
kinase activity, fold increase on addition of cAMP to the chimera holoenzyme, batch of FIG. 17a [1]: 3 fold
kinase activity, fold increase on addition of cAMP to the chimera holoenzyme, second batch (FIG. 17b) [1]: 2 fold
γcAMP (case γDNA<γcAMP) [1]: 2.3 fold
γcAMP (increase in activity by cAMP; case γDNA≧γcAMP) [1]: 2.6 fold
